According to publication PMC7991749:

Key:
[1] = test system: ctXPD;ctp44 (Chaetomium thermophilum;Chaetomium thermophilum); test: fluorescence anisotropy; conditions: FA: 20 mM HEPES pH 7.5, 30 mM KCl, 5 mM MgCl2, 1 mM TCEP, 10 nM DNA, room temperature, photo-cross-linking: 20 mM HEPES pH 7.5, 50 mM KCl
[2] = test system: ctXPD (Chaetomium thermophilum); test: photo-cross-linking; conditions: 5 mM Mg2+, FA: 20 mM HEPES pH 7.5, 30 mM KCl, 5 mM MgCl2, 1 mM TCEP, 10 nM DNA, photo-cross-linking: 20 mM HEPES pH 7.5, 50 mM KCl
[3] = test system: ctXPD;ctp44 (Chaetomium thermophilum;Chaetomium thermophilum); test: photo-cross-linking; conditions: 5 mM Mg2+, 2.5 mM ATP, FA: 20 mM HEPES pH 7.5, 30 mM KCl, 5 mM MgCl2, 1 mM TCEP, 10 nM DNA, room temperature, photo-cross-linking: 20 mM HEPES pH 7.5, 50 mM KCl
[4] = target: ctXPD (XPD helicase from Chaetomium thermophilum) (Chaetomium thermophilum)

Substance “ATGCCTACAGCAAGCCTATGCCTACAGCATCCAGGGCGACGGTGCCGAG [ss-um 49]” has a K half ([1]; none) of 500 nM.
Work on “AAGCCTATGCCTACAGCATCCAGGGCGACGGTGCCGAGGATGACGATGAGCGCA / TGCGCTCATCGTCATCCTCGGCACCGTCGCCCTGGATG [fs-Fap-dC 54/38]” yielded a binding signal (relative cross-linking (reference)) ([2]; no ATP, no ctp44, Fap-dC at position 26 of strand 1 (position inferred from parallel oligos), room temperature) of 1, a binding signal (fold vs same mixture without ATP) ([3]; ctXPD adduct, Fap-dC at position 26 of strand 1 (position inferred from parallel oligos)) of 2.6 and a binding signal (fold vs same mixture without ATP) ([3]; ctp44 adduct, Fap-dC at position 26 of strand 1 (position inferred from parallel oligos)) of 2.
With ctp44 (1-285) (domain or fragment) the ATPase activity of ctXPD (NADH-coupled assay, 37°C): activation by 4 to 1000 nM ctp44 titrated onto 250 nM ctXPD in the presence of 1 μM ssDNA [4] was 82 nM.
With “ATGCCTACAGCAAGCCTATGCCTACAGCATCCAGGGCGACGGTGCCGAG [ss-Fap-dC 49]” the K half ([1]; 5 mM Mg2+, 2 mM ATP, EC50, Fap-dC at position 37 (position inferred from parallel oligos)) was 307 nM and the K half ([1]; Fap-dC at position 37 (position inferred from parallel oligos)) was 200 nM.
With “ATGCCTACAGCAAGCCTATGCCTACAGCATCCAGGGNGACGGTGCCGAG [ss-nAnt 49 (ss-Ant)]” the K half ([1]; position 37 (N; printed A) = nAnt, N-[6-(9-anthracenylcarbamoyl)hexanoyl]-3-amino-1,2-propanediol, non-nucleoside lesion) was 63 nM.
With “AAGCCTATGCCTACAGCATCCAGGGCGACGGTGCCGAGGATGACGATGAGCGCA [ss-Fap-dC 54]” the binding signal (fold cross-linking vs ds probe) ([2]; Fap-dC at position 26 (position inferred from parallel oligos), room …) was 3.
For “ATGCCTACAGCAAGCCTATGCCTACAGCATCCAGGGCGACGGTGCCGAG [ss-Fab(g)-dC 49]”, the K half ([1]; 5 mM Mg2+, 2 mM ATP, EC50, position 37 (B) = Fab(g)-dC) was 268 nM.
For “AAGCCTATGCCTACAGCATCCAGGGCGACGGTGCCGAGGATGACGATGAGCGCA [ss-Fab(g)-dC 54]”, the binding signal (fold cross-linking vs ds probe) ([2]; position 26 (B) = Fab(g)-dC, room temperature, 5 mM MgCl2, 1 mM …) was 3.
Work on “AAGCCTATGCCTACAGCATCCAGGGCGACGGTGCCGAGGATGACGATGAGCGCA / TGCGCTCATCGTCATCCTCGGCACCGTCGCCCTGGATG [fs-Fab(g)-dC 54/38]” yielded a binding signal (fold vs same probe without ATP) ([2]; 2.5 mM ATP, no ctp44, position 26 of strand 1 (B) = Fab(g)-dC, room temperature) of 2.1, a binding signal (fold vs same mixture without ATP) ([3]; ctXPD adduct, position 26 of strand 1 (B) = Fab(g)-dC) of 1.8 and a binding signal (fold vs same mixture without ATP) ([3]; ctp44 adduct, position 26 of strand 1 (B) = Fab(g)-dC) of 2.
“ATGCCTACAGCAAGCCTATGCCTACAGCATCCAGGGNGACGGTGCCGAG [ss-nFlu 49]” gave a K half ([1]; position 37 (N; printed F) = nFlu lesion) of 3 nM.
